The series deals with MS2 coat protein. The series is described as follows: apparent KD of MS2 coat protein; designed switch direction (-1 OFF switch, 1 ON switch): -1; higher = weaker reporter binding. The procedure, abridged:
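The apparent KD reported per design is the median over clusters of curve fits to normalised cluster fluorescence. The RNA switches were transcribed on Illumina chips by stalled E. coli RNA polymerase. SNAP-549-labelled MS2 coat protein was titrated from 0.7 or 1.5 nM, doubling up to 3 µM, in Tris-HCl pH 7.5 buffer containing KCl, MgCl2, BSA, DTT, tRNA and Tween-20, with no input, 200 uM small-molecule ligand, or an oligonucleotide input.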

The mark [1] stands for this setting: Eterna round: R95, input ligand: microRNA oligo, concentration not stated.
[2] abbreviates: input ligand: microRNA oligo, concentration not stated.
Setting [3] is: Eterna round: R95, input ligand: FMN 200 uM.
Setting [4] is: Eterna round: R95, input ligand: none.

Consider “AACGAUCUAGGAUAUACAUGAGGAUCACCCAUGUAAGAGCCCGAACCGGGCUCCCUCUGUAGAAGGAGGUCAAA [Rileququve] (puzzle: Exclusion 3)”, for which the “apparent KD of MS2 coat protein” value under setting [1] turned out to be 27.3 nM.
Turning to “AACGCGUCAGGAUAUAGCGAAACUUAGGUAGUACAACCAUACUAGAAGGGACAUGAGGAUCACCCAUGUGGGUA [JR_Exc004_Sub210] (Eterna round: R96, puzzle: Exclusion 4)”, the “apparent KD of MS2 coat protein” value is, setting by setting: (input ligand: FMN 200 uM) 171 nM; under setting [2], 104 nM; (input ligand: none) 142 nM.
Regarding “AACGGGACAGGAUAUGUCACGGAGAACAUGAGGAUCACCCAUGUGGCUUCGUGGUCUGUUGCAGAAGGGUCGAAAU [Vebedi] (Eterna round: R97, puzzle: Exclusion 5)”, the “apparent KD of MS2 coat protein” value (input ligand: FMN 200 uM) was found to be 19.6 nM and the “apparent KD of MS2 coat protein” value (input ligand: none) amounted to 11.9 nM.
As to “AACGUCUAGGUAGGAUAUCCACCAACAGGUGGAAGGAUAUGUACGCAGAAGGUUCGCCAACAGGCGGAGAAGGACCUACGCGUA [pwkr exNG2 2xF7 2xFMN.30] (Eterna round: R96, puzzle: Exclusion NG 2)”, the “apparent KD of MS2 coat protein” value by setting is: (input ligand: FMN 200 uM) 274 nM; under setting [2], 57.6 nM; (input ligand: none) 340 nM.
On to “AACGUGGCUUAGGAUAUUGCUACGCAAAAGUAACAAGAAGGAAGCACAUGAGGAUCACCCAUGUGAUUCGUUGA [Larevean] (puzzle: Exclusion 6)”, for which the “apparent KD of MS2 coat protein” value came out at 27.1 nM under setting [3], 12.2 nM under setting [1] and 13.3 nM under setting [4].
With “AACUAUGAAGGAUAUACAUGAGGAUCACCCAUGUUGAACUUGGCAUGUGCUCACAGAUGUAGAAGGUCAACCGU [Eternabot (Original) Solution 22] (Eterna round: R97, puzzle: Exclusion 3)”, the “apparent KD of MS2 coat protein” value by setting is: (input ligand: FMN 200 uM) 128 nM; (input ligand: none) 43 nM.
For “AACUCACAUGAGGAUCACCCAUGUGAGGAUAUGGAUUCGCUGGCCGUAGCCAGUGGAUCCAGAAGGCGCGUGAU [JL-ex1-4.26] (Eterna round: R97, puzzle: Exclusion 1)”, the “apparent KD of MS2 coat protein” value (input ligand: FMN 200 uM) came out at 56.7 nM and the “apparent KD of MS2 coat protein” value (input ligand: none) came to 56.9 nM.
Take “AACUCACAUGAGGAUCACCCAUGUGAGGAUAUGUGAGUGUGUAUGUUAUUAUAUAUUUAUAGAAGGCGCGUGAU [JR_Exc1_Sub029] (Eterna round: R97, puzzle: Exclusion 1)”: the “apparent KD of MS2 coat protein” value (input ligand: FMN 200 uM) was determined as 24.5 nM and the “apparent KD of MS2 coat protein” value (input ligand: none) worked out at 23.1 nM.
Regarding “AACUCAUGUUCAGGAUAUCGCGUUCCAAAGACAUGAGAAGGGAACAUGAGGAUCACCCAUGUACCCGGUCUCAGACCGGGCUUC [Tiriaron] (Eterna round: R96, puzzle: Exclusion NG 1)”, the “apparent KD of MS2 coat protein” value worked out at 115 nM (input ligand: FMN 200 uM), 41.8 nM under setting [2] and 64.1 nM (input ligand: none).
In the case of “AACUCUAAGCAGGAUAUCUAGCAAACGUCCGCAAGAGAAGGGCUUACAUGAGGAUCACCCAUGUAAGGAUGAUC [Reorzainar] (puzzle: Exclusion 6)”, the “apparent KD of MS2 coat protein” value is, setting by setting: under setting [3], 48.8 nM; under setting [1], 26 nM; under setting [4], 24.9 nM.
“AACUGGACAGGAUAUGUUCUUGAGCACUUGAGGAUCACCCAAGUCAUCAAGAACUCAGGCACAGAAGGGUUUAUGC [salish99_ex5_r4_003] (Eterna round: R97, puzzle: Exclusion 5)”: the “apparent KD of MS2 coat protein” value by setting is: (input ligand: FMN 200 uM) 19 nM; (input ligand: none) 13.4 nM.
“AAGAAACAUGAGGAUCACCCAUGUGAGGAUAUGAAAAAGAAAAGAAAAGAAAGAAGGCUCAGAAGGCACAAAGG [salish99-ex1_r3_029] (puzzle: Exclusion 1)”: the “apparent KD of MS2 coat protein” value amounted to 30.5 nM under setting [3], 24.1 nM under setting [1] and 28.6 nM under setting [4].
Consider “AAGAAACAUGAGGAUCACCCAUGUGAGGAUAUGAAAAAGAAAAGAAAAGAAAGAAGUUUCAGAAGGCACAAAGG [salish99-ex1_r3_024] (puzzle: Exclusion 1)”, for which the “apparent KD of MS2 coat protein” value was determined as 83.8 nM under setting [3], 41.2 nM under setting [1] and 44.9 nM under setting [4].
As for “AAGAAACAUGAGGAUCACCCAUGUGAGGAUAUGACCCGCCCGGCGUAAGCAAAAUAAAUCAGAAGGCACAAAGG [salish99_ex1_r4_007] (Eterna round: R97, puzzle: Exclusion 1)”, the “apparent KD of MS2 coat protein” value runs as follows: (input ligand: FMN 200 uM) 35.5 nM; (input ligand: none) 37.3 nM.
As to “AAGAAACAUGAGGAUCACCCAUGUGAGGAUAUGACUAAGAAAAGAAAAGAAAGAAGACUCAGAAGGCACAAAGG [salish99-ex1_r3_075] (puzzle: Exclusion 1)”, the “apparent KD of MS2 coat protein” value under setting [3] amounted to 68.9 nM, the “apparent KD of MS2 coat protein” value under setting [1] is 54.5 nM and the “apparent KD of MS2 coat protein” value under setting [4] was 46.8 nM.
With “AAGAAACAUGAGGAUCACCCAUGUGAGGAUAUGAUAAAGAAAAGAAAAGAAAGAAGAGUCAGAAGGCACAAAGG [salish99-ex1_r3_037] (puzzle: Exclusion 1)”, the “apparent KD of MS2 coat protein” value is 71.6 nM under setting [3], 35.8 nM under setting [1] and 47.4 nM under setting [4].
On to “AAGAAACAUGAGGAUCACCCAUGUGAGGAUAUGGCCCGCCCGGCGUGAGCUGGUUUAAUCAGAAGGCACAAAGG [salish99_ex1_r4_014] (Eterna round: R97, puzzle: Exclusion 1)”, for which the “apparent KD of MS2 coat protein” value came to 44.8 nM (input ligand: FMN 200 uM) and 38.1 nM (input ligand: none).
Regarding “AAGAAACAUGAGGAUCACCCAUGUGAGGAUAUGUAAAAGAAAAUAAAAUAAAUAAUAAACAGAAGGCACAAAGG [Mat - Mod of Hog D18] (puzzle: Exclusion 1)”, the “apparent KD of MS2 coat protein” value stood at 58.2 nM under setting [3], 33.6 nM under setting [1] and 40.9 nM under setting [4].
For “AAGAAACGAGGAUAUACAGUUGAGUGAGGGAUGUUAGUGUUACAUGAGGAUCACCCAUGUAGAAGGCGUGAGAG [JR_Exclu2_Sub091] (puzzle: Exclusion 2)”, the “apparent KD of MS2 coat protein” value was found to be 66.4 nM under setting [3], 32.2 nM under setting [1] and 36.2 nM under setting [4].
Regarding “AAGAAAGGUGACAUGGGUGACAUGAGGAUCACCCAUGUUACAAGCUUGUUGCUCGUCUUAUAAUUAACCCAUGUCAC [LRO Sensor-off var1-20 mod of Stov1-13-A1 by Brourd] (Eterna round: R97, puzzle: Sensor, turn-off variant 1)”, the “apparent KD of MS2 coat protein” value (input ligand: FMN 200 uM) amounted to 15.6 nM and the “apparent KD of MS2 coat protein” value (input ligand: none) turned out to be 15.6 nM.
“AAGAACGUGCAAGGAUAUCUCCACCAAACCGGCAGAGAAGGUGCACAUGAGGAUCACCCAUGUGACCUAAAGCUCUUAUGAGCC [Raledigeen] (Eterna round: R96, puzzle: Exclusion NG 1)”: the “apparent KD of MS2 coat protein” value runs as follows: (input ligand: FMN 200 uM) 30.6 nM; under setting [2], 13.1 nM; (input ligand: none) 17.3 nM.
On to “AAGAACUGAGGAUAUGCAAAAGGGAAAGCUGAUCCUCAUCUACAUGAGGAUCACCCAUGUAGAAGGCGGGAAAU [Aveerve] (Eterna round: R96, puzzle: Exclusion 2)”, for which the “apparent KD of MS2 coat protein” value (input ligand: FMN 200 uM) amounted to 108 nM, the “apparent KD of MS2 coat protein” value under setting [2] stood at 50.7 nM and the “apparent KD of MS2 coat protein” value (input ligand: none) stood at 74 nM.
On the same counts, the results for “AAGAAGAAGUAAGGAUAUGAAGAUUUGGUGAUGACAUGAGGAUCACCCAUGUGAAAACAAUAAGAUCAGAAGGUAUAAGAAGAA [AK ExNG2-2.2] (Eterna round: R96, puzzle: Exclusion NG 2)” are 104 nM, 61.6 nM and 112 nM.
“AAGAAGAUCAAAGGAUAUGGAGCUGAAACGGCGCUAGAAGGUUGUCUAGUGUAACAUGAGGAUCACCCAUGUAGGUACCUCUAA [AK ExNG1-V2-1.1] (Eterna round: R96, puzzle: Exclusion NG 1)”: the “apparent KD of MS2 coat protein” value reads like this: (input ligand: FMN 200 uM) 730 nM; under setting [2], 376 nM; (input ligand: none) 847 nM.
As to “AAGAAGCUGAGAGGAUAUGGAGCCGAAACGGAGCUAGAAGGCUUUGCAGAAAGACAUGAGGAUCACCCAUGUUCAUGUAGAGAA [AK ExNG1-1.3] (Eterna round: R96, puzzle: Exclusion NG 1)”, the “apparent KD of MS2 coat protein” value by setting is: (input ligand: FMN 200 uM) 15.2 nM; under setting [2], 12.6 nM; (input ligand: none) 18.4 nM.
For “AAGAAGUGAGGAUAUCACCCUGCGCUACAGUUGCGCAGGCAUGAGAAGGCACUUGAGGAUCACCCAAGUCCUAU [Bitiri] (Eterna round: R97, puzzle: Exclusion 4)”, the “apparent KD of MS2 coat protein” value by setting is: (input ligand: FMN 200 uM) 212 nM; (input ligand: none) 23.6 nM.
Consider “AAGAAGUGAGGAUAUGCAAAGAAAGAAAGAAAGAAAGAAAAGCAGAAGGCACAUGAGGAUCACCCAUGUAAAGA [Fourth Time] (puzzle: Exclusion 4)”, for which the “apparent KD of MS2 coat protein” value under setting [3] came out at 20.5 nM, the “apparent KD of MS2 coat protein” value under setting [1] amounted to 16.5 nM and the “apparent KD of MS2 coat protein” value under setting [4] was determined as 15.6 nM.
As to “AAGAAUUACAUGAGGAUCACCCAUGUAGAGUGGGAAGAGAGAUAGGAUAUGAUGUGAGAAUCAUAUCAGAAGGAUCGAGACUCA [AK ExNG3-2] (Eterna round: R96, puzzle: Exclusion NG 3)”, the “apparent KD of MS2 coat protein” value amounted to 144 nM (input ligand: FMN 200 uM), 105 nM under setting [2] and 138 nM (input ligand: none).
Consider “AAGACACAUGAGGAUCACCCAUGUGAGGAUAUUCGAUGCUGAGCGUAAGCUUAGUAUCGGAGAAGGUACAUAGG [Salishxclusion 9 - Jieux - Exclusion 1] (Eterna round: R97, puzzle: Exclusion 1)”, for which the “apparent KD of MS2 coat protein” value (input ligand: FMN 200 uM) is 77.2 nM and the “apparent KD of MS2 coat protein” value (input ligand: none) is 66.6 nM.
On to “AAGACACUUAGAGGAUAUGUGAAAGGAAGUGUAACAGAAGGCUAGGUGAGAACAUGAGGAUCACCCAUGUGAUCACAUGCCAAA [PowerStrip EXNG 1.27] (Eterna round: R96, puzzle: Exclusion NG 1)”, for which the “apparent KD of MS2 coat protein” value (input ligand: FMN 200 uM) worked out at 20 nM, the “apparent KD of MS2 coat protein” value under setting [2] worked out at 11.9 nM and the “apparent KD of MS2 coat protein” value (input ligand: none) is 12.1 nM.

These data come from the supplement of paper PMC9170038.
